Test system: MS2 coat protein
Assay: apparent KD of MS2 coat protein; designed switch direction (-1 OFF switch, 1 ON switch): 1; higher = weaker reporter binding
Procedure, shortened: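 Normalised cluster fluorescence was curve-fitted, and each design's median over clusters is its apparent KD. Before this, SNAP-549-labelled MS2 coat protein was titrated from 0.7 or 1.5 nM, doubling to 3 µM, over RNA switches transcribed on Illumina chips by stalled E. coli RNA polymerase. Titrations had no input, 200 uM small-molecule ligand, or an oligonucleotide input, and steps lasted 0.8–1.5 h (lowest) to 10–20 min (highest).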

[1] = input ligand: microRNA oligo, concentration not stated
[2] = Eterna round: R95, input ligand: microRNA oligo, concentration not stated
[3] = Eterna round: R95, input ligand: FMN 200 uM
[4] = Eterna round: R95, input ligand: none

Sequence | apparent KD of MS2 coat protein (input ligand: FMN 200 uM) | apparent KD of MS2 coat protein [1] | apparent KD of MS2 coat protein (input ligand: none) | apparent KD of MS2 coat protein [2] | apparent KD of MS2 coat protein [3] | apparent KD of MS2 coat protein [4]
AGCUAUUAAUCAGGAUAUGGUGACAUGAGGAUCACCCAUGUAUAGAUGAUUAAAUGUGGUCUAUACUAGAAGGGAUUACUAACA [SameState NG2 #53] (Eterna round: R96, puzzle: Same State NG 2) | 2210 nM | 478 nM | 626 nM |  |  | 
CAGCGCUGUCGAGAGGAUAUGCGGUGAUGGACAUGAGGAUCACCCAUGUUAGCGAUAGCAUUACGGUAGAAGGCUCUGCAGCUGC [Soteed - 1] (puzzle: Same State 2) |  |  |  | 78.9 nM |  | 
GCAGUACACGCAGAGGAUAUGUCGGUAACGACAUGAGGAUCACCCAUGUGUACGGAAGUACUCAGACAGAAGGCUGUGUACUGCU [Same State 2 - Hyphema v.3] (puzzle: Same State 2) |  |  |  | 79.1 nM | 19.4 nM | 96.2 nM
AAUUUAAUACAUGAGGAUCACCCAUGUAAAUUAAUUAAGAUCAAGGAUAUCAGCUCGUUUAGAGCUGAGAAGGUGAUCACAUGU [SSNG3/19-A3] (Eterna round: R96, puzzle: Same State NG 3) |  | 163 nM |  |  |  | 
AAGACAAGCUUUAUGUUCUUCCUAUUCCAACAUGAGGAUCACCCAUGUAGUCUGACGAUUGUGAGUGUAGUUGAGAU [JR_SHM208A_Sub027] (puzzle: Sensor for hsa-mir-208a) |  |  |  | 76.9 nM | 58.3 nM | 76.5 nM
GGUAAGAAUUAAGGAUAUCGAGUACAUAUGUUUAACAUGAGGAUCACCCAUGUGGGUUGCGGUAUCGAGAAGGUAAAAUAUAAG [Mat - same State NG 2 - JL mod - D64] (Eterna round: R96, puzzle: Same State NG 2) | 51.8 nM | 26.4 nM | 75.7 nM |  |  | 
ACGUGGAUAUCACAGGAUAUACUCACAACUACAUGAGGAUCACCCAUGUAGCGGUAUUCCGGUGCGUAGAAGGGUGAUGGACCAC [Same State 2 - Mod of Artece v.3] (puzzle: Same State 2) |  |  |  | 12 nM | 12.1 nM | 11.4 nM
UCUUGGUUUUUGCUCGUUUUUUGUGUUGAACAUGAGGAUCACCCAUGUAUUGUACGGUCCGAUUUAAUAAUGGUCCA [JMF 38] (puzzle: Sensor for hsa-mir-208a) |  |  |  | 18.3 nM | 30.3 nM | 32.4 nM
UGUCCAGCCUGAGCUGGACAAAAGCAUGUACAUGAGGAUCACCCAUGUUCAUGUACAAGCUUUUUGCUCGUCUUAUA [salish99_208a_r3_044] (puzzle: Sensor for hsa-mir-208a) |  |  |  | 13.8 nM | 404 nM | 415 nM
GUAGGACAUGAGGAUCACCCAUGUAGGAGGGAACGAGGAUAUGUGAUUAGCGAGGAGAGGACAGAAGGCGUGGUAG [JR_SS1_Sub025] (puzzle: Same State 1) |  |  |  | 18.3 nM | 18.7 nM | 21.3 nM
CUCAAACAUGAGGAUCACCCAUGUGUUGUCGUGGGAGGAUAUCCCAGUUCGGUGGCGUCGGGAGAAGGCCUAUGUC [× ×•×ª×• ×ž×“×™× ×” × ×—×ª-16] (puzzle: Same State 1) |  |  |  | 100 nM | 50.4 nM | 129 nM
GAUUCACAUGAGGAUCACCCAUGUCGUAAUAUGGGAGGAUAUACGUGGACCGUAGUCCGCGUAGAAGGCCUAAUUG [Mat - Same State 1 - Mod of JL - D25] (puzzle: Same State 1) |  |  |  | 148 nM |  | 
UAUCCAUAGAUAGGAUAUUAGUGAACAUGAGGAUCACCCAUGUUUUGCUUGGUUUUAAGCUAAUCUGAGAAGGAUCUUGAUGAA [SameState NG2 #6] (Eterna round: R96, puzzle: Same State NG 2) | 31.5 nM | 33.3 nM | 41.6 nM |  |  | 
GUUAAACAUGAGGAUCACCCAUGUAAUAUAAUGGGAGGAUAUCUGAAUUAAUUAAAUUAAGGAGAAGGCCUAUAUG [Mat - Same State 1 - Mod of Eli - D53] (puzzle: Same State 1) |  |  |  | 210 nM | 36.6 nM | 271 nM
AGAAAACAUGAGGAUCACCCAUGUAGAAAUAUGGGAGGAUAUACAAAGACGAAAGUCAAGGUAGAAGGCCUAAAGA [Mat - Same State 1 - Meechl mod - D124] (Eterna round: R96, puzzle: Same State 1) | 19.6 nM | 70.4 nM | 98.7 nM |  |  | 
GUAACAUGACGAGGAUAUGGUACAUGAGGAUCACCCAUGUAUGUACCACGACGCGUACGUCGAAUCCAGAAGGCGUCGUGAAUG [Mat - Same State NG 2 - JL mod - D21] (Eterna round: R96, puzzle: Same State NG 2) | 26.5 nM | 68.5 nM | 70.1 nM |  |  | 

Sequence | apparent KD of MS2 coat protein (input ligand: FMN 200 uM) | apparent KD of MS2 coat protein [1] | apparent KD of MS2 coat protein (input ligand: none) | apparent KD of MS2 coat protein [2] | apparent KD of MS2 coat protein [3] | apparent KD of MS2 coat protein [4]
UAAUUAAGUCAAGGAUAUCACGUCGUUUAGACGUGAGAAGGUGAUUAAUACAUGAGGAUCACCCAUGUAAUACAUGAAUAAUUA [SSNG1/11-B3] (Eterna round: R96, puzzle: Same State NG 1) | 51.3 nM | 59.5 nM | 64.5 nM |  |  | 
GGACGUCACAUUAACAUGAGGAUCACCCAUGUCAAAAGACAUGAGGAUAUGGAUCCUAAUUGGAUCCAGAAGGCAUGGACGUCC [Fiskers NG3ss - 39] (Eterna round: R96, puzzle: Same State NG 3) |  | 373 nM |  |  |  | 
GGUAUCGACACAGGAUAUGCUAUCCUUUGGGUAGCAGAAGGGUGGACAUGAGGAUCACCCAUGUGGGUGCCAGGGCGUGAGCCC [JL SSNG1 1.84] (Eterna round: R96, puzzle: Same State NG 1) | 234 nM | 21.1 nM | 1040 nM |  |  | 
AGCACGGGAUUGGAGGAUAUGUUGUUUGCAACAUGAGGAUCACCCAUGUCUGAGGCUGAAAAGCAGCAGAAGGCCGAUACAACCA [SS2-1.2] (Eterna round: R96, puzzle: Same State 2) | 60.1 nM | 154 nM | 198 nM |  |  | 
ACAUGAGACUUAGGAUAUGUUGUACCUACAUGUGACAUGAGGAUCACCCAUGUGGUAAGUAUGACACAGAAGGAAGAGAUAUGU [Equivalance 67 - Jieux - Same State NG 2] (Eterna round: R96, puzzle: Same State NG 2) |  | 18.9 nM |  |  |  | 
AGAGCCGGCACUGAGGAUAUUCAUAUUAAAACAUGAGGAUCACCCAUGUAGGCCAGAAGGCCUUGGGAGAAGGCAGGUCGGCUCU [Mat - Same State 2 - Mod of UCT - D61] (Eterna round: R96, puzzle: Same State 2) | 18.7 nM | 201 nM | 366 nM |  |  | 
GCUGCAAUUAACGCCUACAUGAGGAUCACCCAUGUAUGUAGGCAGGAUAUCGUUUGCUUUGCAAACGAGAAGGGCCGUAGUAGC [JL SSNG3 1.12] (Eterna round: R96, puzzle: Same State NG 3) | 22.8 nM | 37.6 nM | 63.1 nM |  |  | 
AUUAUUUAUGCAGGAUAUGAUUAACAUGAGGAUCACCCAUGUGGUGUUGUGAGUAAGGAGAGUGAUCAGAAGGGCAUUUUUUCU [JMF's solution 55] (Eterna round: R96, puzzle: Same State NG 2) | 460 nM | 361 nM | 490 nM |  |  | 
CCGUAGAUGGUAGGAUAUGGAGCCUUAUUGGCUCCAGAAGGAUCUAAAACAUGAGGAUCACCCAUGUCGGCGGUCAAUAGACCG [Eli NG1ss - 83] (Eterna round: R96, puzzle: Same State NG 1) | 67.2 nM | 65.1 nM | 107 nM |  |  | 
GCAGAACAUGAGGAUCACCCAUGUCUCUAAUAUCGAGGAUAUGGGCACGGUAUAUCCGAACCAGAAGGCGAACUGC [SS1 Teenbexe 15] (puzzle: Same State 1) |  |  |  | 244 nM |  | 
GGAUGAUAGAUAGGAUAUUGAUUGUAAUUAUGUCAAGAAGGAUCUUUGAUUUAAACGACCAGUUACAUGAGGAUCACCCAUGUU [JR_SSNG1_Sub087] (Eterna round: R96, puzzle: Same State NG 1) | 23.3 nM | 30.4 nM | 43.6 nM |  |  | 
GGUACACAUGAGGAUCACCCAUGUCGUAUGACAUGAGGAUAUGUACAGACUUCGGUCUGUACAGAAGGCAUGUGUC [SS1 - 1011 Omei Mod 4] (puzzle: Same State 1) |  |  |  | 24.5 nM |  | 
GAGCCAGUCCGAGGAUAUUCAUAACAUGAGGAUCACCCAUGUAGGCUCAGAAAAGAAGAGCCUUGGGAGAAGGCGGACUGGCUC [Xeonanisa<<5] (Eterna round: R96, puzzle: Same State NG 2) | 9.88 nM | 30.2 nM | 43.8 nM |  |  | 
GGAAGGAGGUCAGGAUAUGAACGGAAGGUACAUGAGGAUCACCCAUGUUACGGAGGAAGGAAACGUUAGAAGGGACAAGGAAGG [AK SSNG2-V2-3] (Eterna round: R96, puzzle: Same State NG 2) | 14.8 nM | 12.8 nM | 18.1 nM |  |  | 
UGUUGUAUUACAGGAUAUCUAGUAUUUUAAUUUAGAGAAGGGUAUUCACAUGAGGAUCACCCAUGUAUAUACGAGGAAGUUGUG [JMF's solution 43] (Eterna round: R96, puzzle: Same State NG 1) |  | 38.6 nM |  |  |  | 
AGCUAGUACGAAGGAUAUACAAACAUGAGGAUCACCCAUGUAUACAUGGUUAGAUGUGACUACAUGUAGAAGGUCGUACUAGCA [SameState NG2 #15] (Eterna round: R96, puzzle: Same State NG 2) | 225 nM | 331 nM | 443 nM |  |  | 
